Source: patent publication US20210346432A1

Experiments:
ET140-p25 (human) = target: T1, ET140-p25 (human); experiment: peptide ELISA on streptavidin plate, antibody 1 ug/mL
T1 sequence (peptide, N-terminal biotin): SGSGLRCSSNTPPLTCQRY

ET140-p26 (human) = target: T2, ET140-p26 (human); experiment: as above
T2 sequence (peptide, N-terminal biotin): SGSGRCSSNTPPLTCQRYC

901mIgG (antibody)
A450 (ET140-p25 (human)): 0.492
A450 (ET140-p26 (human)): 0.162
